Source: publication PMC3871639

Target: T1, Stat5 (mouse liver nuclear extract, identified by WEMSA immunoblot) (mouse) (UniProt P42232)
T1 sequence: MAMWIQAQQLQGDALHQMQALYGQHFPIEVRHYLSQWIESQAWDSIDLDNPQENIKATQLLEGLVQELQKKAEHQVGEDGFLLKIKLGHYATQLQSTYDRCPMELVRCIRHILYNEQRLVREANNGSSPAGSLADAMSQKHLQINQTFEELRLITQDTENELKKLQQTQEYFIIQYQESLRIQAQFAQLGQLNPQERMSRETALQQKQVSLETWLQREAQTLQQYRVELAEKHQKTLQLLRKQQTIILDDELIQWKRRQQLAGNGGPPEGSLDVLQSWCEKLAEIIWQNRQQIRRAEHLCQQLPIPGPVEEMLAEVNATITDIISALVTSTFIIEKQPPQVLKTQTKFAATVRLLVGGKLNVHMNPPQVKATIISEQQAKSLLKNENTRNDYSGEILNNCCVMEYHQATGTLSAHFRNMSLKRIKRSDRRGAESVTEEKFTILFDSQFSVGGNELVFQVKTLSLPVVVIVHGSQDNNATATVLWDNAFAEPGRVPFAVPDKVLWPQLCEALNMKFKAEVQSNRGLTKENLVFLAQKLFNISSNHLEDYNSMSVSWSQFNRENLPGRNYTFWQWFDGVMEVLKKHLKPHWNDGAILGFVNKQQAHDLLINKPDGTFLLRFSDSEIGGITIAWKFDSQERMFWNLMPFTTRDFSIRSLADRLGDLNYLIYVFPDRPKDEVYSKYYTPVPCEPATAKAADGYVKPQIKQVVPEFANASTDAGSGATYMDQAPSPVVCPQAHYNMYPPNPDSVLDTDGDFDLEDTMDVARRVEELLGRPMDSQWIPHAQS
Assay: EMSA + immunoblot of shifted complex (WEMSA)
Conditions: Li-Cor EMSA buffer kit: 1x binding buffer, poly(dI-dC) 1 ug/uL (in 10 mM Tris, 1 mM EDTA, pH 7.5), 25 mM DTT/2.5% Tween-20, 1% NP-40, 100 mM MgCl2 (as listed …)

“GTAATTCCTAGATTCATGGAAGAG (double strand) [Stat5 element probe of mouse Tmprss6 promoter]” gave a binding signal (% of baseline shift (decreased by 60%)) of 40.
